Source: the supplement of paper PMC12764529
± gives the half width of the 95% confidence interval.

What was measured:
[1] = folding stability dG unfold from trypsin proteolysis; higher = more stable
How it was run: (§1)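 Mini-proteins designed to be under 80 residues and free of cysteine were carried in a PA-tagged cDNA display construct and digested with trypsin and with chymotrypsin. Each protease was applied at 11 threefold-diluted concentrations, alongside a no-protease condition, before sequencing. K50 came from Bayesian fitting of the sequencing counts, and unfolding free energy was obtained by comparing it with a sequence-predicted unfolded-state K50 and a shared folded-state K50, for each protease separately or for both together. Designs were retained only if their AlphaFold2 dimer inter-PAE exceeded 15.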

[2] = folding stability dG unfold from chymotrypsin proteolysis; higher = more stable
How it was run: as §1

[3] = folding stability dG unfold (combined trypsin and chymotrypsin); higher = more stable
How it was run: as §1

| Sequence | folding stability dG unfold [1] [kcal/mol] | folding stability dG unfold [2] [kcal/mol] | folding stability dG unfold [3] [kcal/mol] |
| --- | --- | --- | --- |
| SAGGSALKNSTLRITVERGNVPFTVEVKLKSVVVDLESGKVDVELPEEFKKLFKGPVKILSLEIPDSAGGSA [r15_710_TrMRF] | 0.884 ± 0.057 | 1.82 ± 0.11 | 1.53 ± 0.17 |
| SKAEILEAPAVFNPESESATLYYLVKVTFPDPSVKLIPGVFPADYTPEQAAEEILARFKSLGLESATITPSA [r9_1203_TrMRF] | 1.5 ± 0.15 | 1.46 ± 0.12 | 1.57 ± 0.19 |
| SAGSMRITVEITFTSPEGVVKTKTVEVDLSSGSIDLSPEVIEAAKKELGLPPNVTVTLTVVEERPELESAGG [r19_287_JUSTAS] | 4.06 ± 0.22 | 3.37 ± 0.11 | 3.69 ± 0.11 |
| SAGSSLPPSLSKEEIVAALKSQGYTSVKEEKLPDPNKSRMVFTHPNSVVTVEFFPNSVTVTTVPLSVPSSAG [r5_899_JUSTAS] | 0.0126 ± 0.28 | 1.32 ± 0.16 | 0.968 ± 0.23 |
| SAGGSAGGKNNETRRDPNNGNTYTRTGGKWEMEPVPPPIEIVPWPIWDPNGQDLELMWRVSINLSAGGSAGG [r6_313_TrROS] | 1.06 ± 0.2 | 0.497 ± 0.49 | 0.838 ± 0.33 |
| SAGGSPTVTFDPETGAVTVTVNGQTQTAYIPPGDKVTLTVTFQSGGSGVPFTLELEVTVTPPKPLKSAGGSA [r2_116_TrMRF] | 1.45 ± 0.074 | 2.48 ± 0.061 | 2.17 ± 0.12 |
| SMEVVEEFTLPNGTRITLTKNEDGTVTVTLETTVKNPETGKTTTKTVTITVKLEPGEEYSLEELLATLLSSA [r9_614_TrROS_Hall] | 3.5 ± 0.12 | 3.77 ± 0.039 | 3.7 ± 0.078 |
| SAGGSAGGPETIPLRFGEEEVLLVLSPEDPDRFLAYFPAEGRVYLYRLLPEGLEFLREVPAEELSAGGSAGG [r6_915_TrMRF] | 2.1 ± 0.066 | 2.03 ± 0.13 | 2.07 ± 0.1 |
| SAGGGMSEEYVKKLFESLGFTKLETREYPGLKVTTFSAKDLTVVAYPDGTIEIFDKNGNLIKTDKGLSAGGS [r8_147_JUSTAS] | 1.06 ± 0.021 | 1.82 ± 0.03 | 1.54 ± 0.049 |
| SAGMKEKAIDALKEFFEEEGIKVKKIVIEEKPDGTYKITVYGENGKPIFEIEVPKDVKTSEELKKLIKKSAG [r5_352_TrMRF] | 2.71 ± 0.52 | 3.67 ± 0.12 | 3.61 ± 0.3 |
| SPVPLDVPPGSRAVLVFRFPDGSRAVAVFDPVTGKATVTFYPPDGSKVTRTFDGPDLADLPPGVERIAPLSA [r9_1110_TrMRF] | 1.77 ± 0.11 | 2.7 ± 0.12 | 2.34 ± 0.14 |
| SAGGSASSVPVELEYETPGDPSSSSYTLEPVDLPPELASRIVEVTAKVEKEGGKLKITATVTLTDLSAGGSA [r15_321_JUSTAS] | 0.723 ± 0.12 | 0.137 ± 0.25 | 0.48 ± 0.2 |
| MEEIRDLPGIKWQPIERDGDRYYWMFTIPPEQFKNNGKPPVIVMAEFEPNGKWRITPWIRPWLRKLGIEPVS [r1_256_TrROS] | 1.92 ± 0.049 | 1.72 ± 0.083 | 1.92 ± 0.091 |
| SAGGSAGGSAGGSKKIKIKVPPGARVRLKNGKWFSVEDIEKLKELGIKEIEIEKLPPKKSAGGSAGGSAGGS [r4_47_TrROS_Hall] | 0.669 ± 0.037 | 1.13 ± 0.09 | 0.999 ± 0.081 |
| SAGGSAGGSAAPEVTIKVTITYDPETNVLTIEAEATLPDGRKVRITARINKDGSIEIVSVEEVSAGGSAGGS [r12_1029_TrROS_Hall] | 4.63 ± 0.64 | 4.61 ± 0.91 | > 6 |
| SMEELLEKALEEAKEAAEKGEKTVIIEIRVDGKTFRIEIDVETGEIVKIEKEKREDGSEIFRIEIKLPEPSA [r9_308_TrROS_Hall] | 0.695 ± 0.07 | 1.61 ± 0.086 | 1.3 ± 0.39 |
| SAGGSAGGSAGGMEFELEDGGYVKVELELSEDGELVARVEFFNENGEPVAEIEVPLEEILSAGGSAGGSAGG [r7_660_TrMRF] | 1.63 ± 0.12 | 1.76 ± 0.062 | 1.76 ± 0.13 |
